B1: IL4R-CHI-13 (antibody, V domains shown)
VH: EVQLQQSGPVLVKPGASVKMSCKASGYTFTDYYMNWVKQRHGKSLDWIGTINPYNGGTGYNQKFKGKATLTVDKSSSTAYMELNSLTSEDSAVYFCARSLLRRRGAMDYWGQGTSVTVSS
VL: DIVLTQSPASLVVSLGQRATISCRASKSVSTSGYGYIHWYRQKPGQPPKLLIYLVSNLESGVPARFSGSGSGTDFTLNIHPVEEEDAATYYCQHIRELYTFGGGTKLEIK
B2: IL4R-CHI-07 (antibody, V domains shown)
VH: QVQLQQSGAELVKPGASVKLSCKASGYTFTEYTIHWVKQRSGQGLEWIGWFYPGRGSIKYNEKFKDKATLTADKSSSTVYMELSRLTSEDSAVYFCTRHEYRGSNYAMDYWGQGTSVTVSS
VL: DVLMTQTPLSLPVSLGDQASISCRSSQSIVHSSGNTYLQWYLQKPGQSPKLLIYKVSNRFSGVPDRFSGSGSGTDFTLKISRVEAEDLGVYYCFQGSHVPPTFGGGTKLEIK
B3: IL4R-CHI-14 (antibody, V domains shown)
VH: EVMLVESGGGLVKPGGSLKLSCAASGFTFSSYAMSWVRQTPEKRLEWVAIISGGGDSTYYPDSVKGRFTISRDNAKNTLYLQMSSLRSEDTALYFCARLHYWYFDFWGTGTTVTVSS
VL: DIQMTQSSSSFSVSLGDRVTITCKASEDLYNRLAWYQQKPGNAPRLLISGATSLETGVPSRFSGSGSGRDYTLIITSLQTEDVATYYCQQYWRNPYTFGGGTKLEIK
B4: IL4R-CHI-04 (antibody, V domains shown)
VH: DVQLQESGPGLVKPSQSLSLTCTVTGYSITSDYAWNWIRQFPGNKLEWMGYISYSGSSSYNPSLKSRISITRDTSKNQFFLQLNSVTTDDTATYYCAGGGLRRRGLFDYWGQGTTLTVSS
VL: QIVLSQSPAILSASPGEKVTMTCRATSSVTYMHWYQQKPGSSPKPWIYATSNLASGVPARFSGSGSGTSYSLTISRVEAEDTATYYCQQWSSIPLTFGAGTKLELK
B5: IL4R-CHI-17 (antibody, V domains shown)
VH: QAYLQQSGAELVRPGASVKMSCKASGYTFTSYNMHWAKQTPRQGLEWIGSIYPGNGDTSYNQKFKGKATLTVDKSSSTAYMQLSSLTSEDSAVYFCARGGRLRRGDWFAYWGQGTLVTVSA
VL: DIQMTQSPASLSASVGETVTITCRASENIYSYLIWYQQKQGKSPQLLVYDAKTLAEGVPSRFSGSGSGSQFSLKINSLQPEDFGTYYCQHHYGTPLTFGGGTKLELK

molecular target: Full-length cynoIL4Rα on monkey IL4Rα-FlpinCHO cells (cynomolgus monkey); test: flow cytometry on monkey IL4Rα-FlpinCHO cells
Sequence (A0A2K5 entry or part of it limits assumed): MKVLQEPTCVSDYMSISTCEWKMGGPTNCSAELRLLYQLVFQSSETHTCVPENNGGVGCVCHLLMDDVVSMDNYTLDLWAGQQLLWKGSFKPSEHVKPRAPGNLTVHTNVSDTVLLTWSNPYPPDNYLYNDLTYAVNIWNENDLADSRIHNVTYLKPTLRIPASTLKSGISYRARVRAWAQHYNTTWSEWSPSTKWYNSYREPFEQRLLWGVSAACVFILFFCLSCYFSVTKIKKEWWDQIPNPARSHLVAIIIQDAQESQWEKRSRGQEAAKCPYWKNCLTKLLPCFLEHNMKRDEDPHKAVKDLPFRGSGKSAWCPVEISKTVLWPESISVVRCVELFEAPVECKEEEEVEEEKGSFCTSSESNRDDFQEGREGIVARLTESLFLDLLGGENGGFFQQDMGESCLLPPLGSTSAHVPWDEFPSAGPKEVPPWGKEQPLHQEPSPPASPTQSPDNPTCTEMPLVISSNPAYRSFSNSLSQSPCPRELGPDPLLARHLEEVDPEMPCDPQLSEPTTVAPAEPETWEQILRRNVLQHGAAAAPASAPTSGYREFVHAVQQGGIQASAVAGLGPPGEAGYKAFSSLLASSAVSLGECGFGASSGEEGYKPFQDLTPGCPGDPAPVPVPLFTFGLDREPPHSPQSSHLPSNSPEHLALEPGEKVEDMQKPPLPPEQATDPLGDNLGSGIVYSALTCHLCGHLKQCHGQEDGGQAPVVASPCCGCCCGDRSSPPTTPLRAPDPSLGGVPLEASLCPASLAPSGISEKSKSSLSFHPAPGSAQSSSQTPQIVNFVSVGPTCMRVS

Emax | Binder
74 | B1
58 | B2
97 | B3
82 | B4
68 | B5

From patent publication EP4755920A1
